Assay results: article PMC12251713, “The Novel Transcription Factor BnaA01.KAN3 Is Involved in the Regulation of Anthocyanin Accumulation Under Phosphorus Starvation”

Target: T1, BnaA01.KAN3-His (Brassica napus cv. Zhongshuang 11, UniProt A0A816XN48 1-312)
T1 sequence: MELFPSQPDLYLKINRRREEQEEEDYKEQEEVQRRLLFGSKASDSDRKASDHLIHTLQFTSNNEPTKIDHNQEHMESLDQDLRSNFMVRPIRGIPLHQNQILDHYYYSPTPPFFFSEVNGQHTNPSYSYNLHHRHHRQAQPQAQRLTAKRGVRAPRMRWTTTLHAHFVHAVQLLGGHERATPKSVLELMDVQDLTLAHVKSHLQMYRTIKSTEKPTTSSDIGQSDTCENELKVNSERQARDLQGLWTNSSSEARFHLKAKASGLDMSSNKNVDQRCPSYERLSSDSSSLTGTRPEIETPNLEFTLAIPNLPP
Assay: EMSA; LightShift Chemiluminescent EMSA Kit (Thermo 20148); buffer, salt, pH and temperature not stated
Details: protein: recombinant; tags: His (pET28a); label: biotin 3' end; blunt

B1: P1BS EMSA probe (dsDNA)
DNA 1: AGACTTTGATTTGCATTATTGCATATACGTAGTAGTATAATGGTACTATC
DNA 2: GATAGTACCATTATACTACTACGTATATGCAATAATGCAAATCAAAGTCT
binding result: binds
